Experimental findings from PMC5595237 (Nature, 2017) are described below.

This data set deals with the molecule itself. The data set is described as follows: SEC.

B1: full-length human adiponectin (ligand)
chain: ETTTQGPGVLLPLPKGACTGWMAGIPGHPGHNGAPGRDGRDGTPGEKGEKGDPGLIGPKGDIGETGVPGAEGPRGFPGIQGRKGEPGEGAYVYRSAFSVGLETYVTIPNMPIRFTKIFYNQQNHYDGSTGKFHCNIPGLYYFAYHITVYMKDVKVSLFKKDKAMLFTYDQYQENNVDQASGSVLLHLEVGDQVWLQVYGEGERNGLYADNDNDSTFTGFLLYHDTN
Consider B1, for which the binding result is on record as “binds”.
